US20240376204A1 (JIANGSU HENGRUI PHARMACEUTICALS, published 2024)
Like-named read-outs stand apart in the source and are kept apart here.

What was measured:
[1] = biological target: T1, human TIGIT expressed on cells (human, UniProt Q495A1 22-244); test: FACS by the method of Example 2-2 with human TIGIT; numbers not given
T1 construct: whole, on cells; also called cells overexpressing human TIGIT; CHO-K1 cell strain expressing the human TIGIT gene
T1 sequence (looked up): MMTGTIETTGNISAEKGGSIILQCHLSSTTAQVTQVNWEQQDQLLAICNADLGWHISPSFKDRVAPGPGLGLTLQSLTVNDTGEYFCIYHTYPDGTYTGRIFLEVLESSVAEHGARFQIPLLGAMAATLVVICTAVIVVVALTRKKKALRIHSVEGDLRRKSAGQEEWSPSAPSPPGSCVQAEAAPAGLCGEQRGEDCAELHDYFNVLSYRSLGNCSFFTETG

[2] = biological target: T2, human TIGIT recombinant protein (human, UniProt Q495A1 22-141); test: ELISA by the method of Example 2-2 with human TIGIT; numbers not given
T2 construct: also called human TIGIT antigen (AcroBiosystem, TIT-H52H3); TIGIT protein
T2 sequence (looked up): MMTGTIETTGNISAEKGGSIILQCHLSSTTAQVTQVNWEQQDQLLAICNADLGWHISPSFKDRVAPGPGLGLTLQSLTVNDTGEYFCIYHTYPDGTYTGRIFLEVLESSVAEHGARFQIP

[3] = biological target: T3, human PVRIG expressed on cells (human, UniProt Q6DKI7 41-326); test: cell-based or functional assay
T3 sequence (looked up): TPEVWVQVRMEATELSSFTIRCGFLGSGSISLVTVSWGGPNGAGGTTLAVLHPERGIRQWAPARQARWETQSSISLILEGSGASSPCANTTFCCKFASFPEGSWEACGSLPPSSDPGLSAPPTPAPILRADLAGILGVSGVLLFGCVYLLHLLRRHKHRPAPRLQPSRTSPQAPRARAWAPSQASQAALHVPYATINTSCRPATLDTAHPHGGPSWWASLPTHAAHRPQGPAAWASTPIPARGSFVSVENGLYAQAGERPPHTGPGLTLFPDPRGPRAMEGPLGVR

[4] = biological target: T3, human PVRIG expressed on cells; test: cell-based or functional assay; remark: listed apart in the source
[5] = biological target: T3, human PVRIG expressed on cells; test: cell-based or functional assay; remark: listed apart in the source
[6] = biological target: T4, his-tagged human PVRIG (h-PVRIG-his) recombinant protein (human, UniProt Q6DKI7 41-171, limits assumed); test: BLI (Fortebio), antibody on Protein A sensor, his-tagged human PVRIG as analyte
T4 construct: Acrobiosystems; also called Human PVRIG-his; human PVRIG recombinant protein; not shown: his tag
T4 sequence (looked up): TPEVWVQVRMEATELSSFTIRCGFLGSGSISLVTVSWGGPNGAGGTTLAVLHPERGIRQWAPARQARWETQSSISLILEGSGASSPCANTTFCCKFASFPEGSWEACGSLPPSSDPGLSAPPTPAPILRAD
Experimental: A Protein A biosensor (Fortebio, #18-5010) was immersed in 200 μL of KB buffer (PBS, pH 7.4, 0.02% tween-20, 0.10% BSA) for 60 s as a wetting treatment. Then an anti-PVRIG antibody was diluted to 10 μg/mL with KB buffer, and the sensor was immersed in 200 μL of the solution until the reading was 1.2 nm. The sensor was immersed in KB buffer for 100 s to remove excess antibody. […] The sensor was placed in the solution for 300 seconds of binding and then in KB buffer for 600 seconds of dissociation. Fitting was performed using a dynamic 1:1 binding mode.

[7] = biological target: T5, human PD-1 expressed on cells (human, UniProt Q15116 25-288); test: cell-based or functional assay
[8] = biological target: T5, human PD-1 expressed on cells; test: cell-based or functional assay; remark: listed apart in the source
[9] = biological target: T4, his-tagged human PVRIG (h-PVRIG-his) …; test: ELISA, plate coated with PVRIG protein (his tag)
Experimental: ELISA assays were performed. TIGIT or PVRIG protein (his tag, Acrobiosystems, PVG-H52H4) was dissolved in PBS to 1 μg/mL, and the solution was added to a 96-well plate at 100 μL/well. The plate was coated with the antigen overnight at 4° C. The plate was washed with PBST solution three times. PBST/1% BSA solution was added, and the plate was incubated at 37° C. for 1 h for blocking. After three washes with PBST solution, different concentrations of the trispecific antibodies (diluted with PBST/1% BSA solution) were added, and the plate was incubated at 37° C. for 1.5 h. The plate was washed with PBST solution three times. […] After three washes with PBST solution, TMB solution was added at 100 μL/well. After 5 min of reaction at room temperature, 50 μL of stop solution was added. OD450 values were measured using a microplate reader, and EC₅₀ was calculated.

T5 sequence (Q15116 25-288 limits assumed): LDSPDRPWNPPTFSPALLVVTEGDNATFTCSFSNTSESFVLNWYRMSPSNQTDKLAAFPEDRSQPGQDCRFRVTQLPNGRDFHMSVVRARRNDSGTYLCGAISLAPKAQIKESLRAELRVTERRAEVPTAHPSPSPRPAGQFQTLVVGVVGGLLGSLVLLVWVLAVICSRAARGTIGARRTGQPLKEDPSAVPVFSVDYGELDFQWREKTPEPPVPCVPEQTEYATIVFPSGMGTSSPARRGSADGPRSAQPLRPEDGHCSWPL

B1: 1708-151-3 (bispecific antibody, human IgG4 S228P, kappa)
heavy: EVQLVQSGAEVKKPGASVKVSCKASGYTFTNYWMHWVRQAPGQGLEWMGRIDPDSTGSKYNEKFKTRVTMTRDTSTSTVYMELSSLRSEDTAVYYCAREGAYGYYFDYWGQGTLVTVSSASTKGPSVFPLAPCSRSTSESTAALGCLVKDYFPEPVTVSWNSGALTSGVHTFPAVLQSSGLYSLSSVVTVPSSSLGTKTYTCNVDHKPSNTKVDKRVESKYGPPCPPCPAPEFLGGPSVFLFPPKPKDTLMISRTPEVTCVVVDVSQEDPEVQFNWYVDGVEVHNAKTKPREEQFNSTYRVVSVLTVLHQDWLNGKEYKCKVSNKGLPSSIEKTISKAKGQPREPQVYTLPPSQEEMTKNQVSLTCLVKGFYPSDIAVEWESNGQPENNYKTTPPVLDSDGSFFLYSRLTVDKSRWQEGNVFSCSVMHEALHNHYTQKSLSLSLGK
light: HVQLVESGGGSVQAGGSLRLSCVASASGFTYRPYCMAWFRQAPGKEREAVAGIDIFGGTTYADSVKGRFTASRDNAGFSLFLQMNDLKPEDTAMYYCAAGDSPDGRCPPLGQGLNYWGQGTQVTVSSGGGGSGGGGSDIQMTQSPSSLSASVGDRVTITCRASENIYSYLAWYQQKPGKSPKLLIYNARTLAEGVPSRFSGSGSGTDFTLTISSLQPEDFATYYCQYHSGSPLPFGGGTKVEIKRTVAAPSVFIFPPSDEQLKSGTASVVCLLNNFYPREAKVQWKVDNALQSGNSQESVTEQDSKDSTYSLSSTLTLSKADYEKHKVYACEVTHQGLSSPVTKSFNRGEC
notes: Anti-PVRIG/TIGIT
[1]
  binding result: binds
[2]
  binding result: binds

B2: Tab5 (antibody, human IgG4 S228P, kappa, F234A L235A, V domains shown)
VH: EVQLVESGGGVVKPGGSLRLSCAASGFTFGTSSMNWVRQAPGKGLEWVAVISFDGTEIHYADSVKGRFTISRDNSKSTVFLQMNSLRPDDTALYYCAKGSGNIYFYSGMDVWGQGTTVTVSS
VL: DIQMTQSPSTLSASVGDRVTITCRAGQSISGWLAWFQQKPGKAPNLLIYETSTLESGVPSRFSGSGSGTEYTLTISSLQPDDFATYYCQQYYSYPLTFGQGTKVEIKR
notes: Anti-PVRIG positive control, IgG4 S228P/F234A/L235A/K447A; also called positive antibody Tab5; CPA.7.021 variable regions on human IgG4/kappa
[3]
  PVRIG reporter gene cell activity EC50: 0.74 nM
[4]
  IFNγ, mixed lymphocyte reaction, 4 nM antibody: 912 pg/mL
  IFNγ, mixed lymphocyte reaction, 20 nM antibody: 1420 pg/mL
  IFNγ, mixed lymphocyte reaction, 100 nM antibody: 2350 pg/mL
[5]
  PVRIG reporter gene cell activity EC50: 1.38 nM
[6]
  kon: 737000 M⁻¹ s⁻¹

B3: A17h1-1708-151H7-A (trispecific antibody, human IgG4 S228P, kappa)
heavy: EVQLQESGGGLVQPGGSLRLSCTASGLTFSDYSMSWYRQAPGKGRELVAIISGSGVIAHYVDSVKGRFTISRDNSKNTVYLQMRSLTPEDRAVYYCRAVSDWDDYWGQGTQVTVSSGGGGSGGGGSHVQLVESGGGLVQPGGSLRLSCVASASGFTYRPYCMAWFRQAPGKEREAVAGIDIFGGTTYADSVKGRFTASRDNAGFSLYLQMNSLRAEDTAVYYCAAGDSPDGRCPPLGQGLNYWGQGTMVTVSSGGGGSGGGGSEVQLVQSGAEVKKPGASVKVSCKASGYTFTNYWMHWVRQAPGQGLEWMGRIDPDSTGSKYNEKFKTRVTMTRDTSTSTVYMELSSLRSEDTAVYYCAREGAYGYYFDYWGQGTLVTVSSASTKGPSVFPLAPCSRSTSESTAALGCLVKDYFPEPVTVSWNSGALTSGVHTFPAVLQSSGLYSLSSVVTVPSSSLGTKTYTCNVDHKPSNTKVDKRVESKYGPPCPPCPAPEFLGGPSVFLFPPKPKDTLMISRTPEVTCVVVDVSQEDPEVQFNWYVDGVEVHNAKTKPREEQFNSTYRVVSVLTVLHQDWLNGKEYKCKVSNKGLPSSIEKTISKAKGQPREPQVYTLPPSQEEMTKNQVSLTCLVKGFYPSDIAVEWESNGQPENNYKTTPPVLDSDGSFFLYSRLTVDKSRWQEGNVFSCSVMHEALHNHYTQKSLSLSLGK
light: DIQMTQSPSSLSASVGDRVTITCRASENIYSYLAWYQQKPGKSPKLLIYNARTLAEGVPSRFSGSGSGTDFTLTISSLQPEDFATYYCQYHSGSPLPFGGGTKVEIKRTVAAPSVFIFPPSDEQLKSGTASVVCLLNNFYPREAKVQWKVDNALQSGNSQESVTEQDSKDSTYSLSSTLTLSKADYEKHKVYACEVTHQGLSSPVTKSFNRGEC
[7]
  DC:T MLR result, 0.1 nM antibody (unit not given): 91.3
  DC:T MLR result, 1 nM antibody (unit not given): 121
  DC:T MLR result, 10 nM antibody (unit not given): 147
  DC:T MLR result, 100 nM antibody (unit not given): 155
[8]
  IC50 (read off the curve): ~0.9 nM
[9]
  EC50: 0.0952 nM

B4: 1708-151-2 (bispecific antibody, human IgG4 S228P, kappa)
heavy: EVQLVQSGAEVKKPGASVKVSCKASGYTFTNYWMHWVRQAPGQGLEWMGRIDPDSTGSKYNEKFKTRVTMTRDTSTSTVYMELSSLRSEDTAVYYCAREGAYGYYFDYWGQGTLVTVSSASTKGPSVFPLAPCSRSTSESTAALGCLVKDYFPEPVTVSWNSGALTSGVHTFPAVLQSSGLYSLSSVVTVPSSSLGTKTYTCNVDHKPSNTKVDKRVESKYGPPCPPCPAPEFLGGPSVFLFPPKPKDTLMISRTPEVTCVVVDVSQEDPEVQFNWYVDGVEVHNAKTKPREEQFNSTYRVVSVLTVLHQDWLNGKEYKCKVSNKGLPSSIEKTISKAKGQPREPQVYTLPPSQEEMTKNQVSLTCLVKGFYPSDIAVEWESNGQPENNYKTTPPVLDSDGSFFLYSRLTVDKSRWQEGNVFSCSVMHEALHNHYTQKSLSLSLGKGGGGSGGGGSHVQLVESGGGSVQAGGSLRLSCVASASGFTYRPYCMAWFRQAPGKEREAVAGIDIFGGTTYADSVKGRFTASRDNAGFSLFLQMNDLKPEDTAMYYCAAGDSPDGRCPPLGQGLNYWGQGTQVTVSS
light: B3 light
notes: Anti-PVRIG/TIGIT
[1]
  binding result: binds
[2]
  binding result: binds

B5: 1708-151-1 (bispecific antibody, human IgG4 S228P, kappa)
heavy: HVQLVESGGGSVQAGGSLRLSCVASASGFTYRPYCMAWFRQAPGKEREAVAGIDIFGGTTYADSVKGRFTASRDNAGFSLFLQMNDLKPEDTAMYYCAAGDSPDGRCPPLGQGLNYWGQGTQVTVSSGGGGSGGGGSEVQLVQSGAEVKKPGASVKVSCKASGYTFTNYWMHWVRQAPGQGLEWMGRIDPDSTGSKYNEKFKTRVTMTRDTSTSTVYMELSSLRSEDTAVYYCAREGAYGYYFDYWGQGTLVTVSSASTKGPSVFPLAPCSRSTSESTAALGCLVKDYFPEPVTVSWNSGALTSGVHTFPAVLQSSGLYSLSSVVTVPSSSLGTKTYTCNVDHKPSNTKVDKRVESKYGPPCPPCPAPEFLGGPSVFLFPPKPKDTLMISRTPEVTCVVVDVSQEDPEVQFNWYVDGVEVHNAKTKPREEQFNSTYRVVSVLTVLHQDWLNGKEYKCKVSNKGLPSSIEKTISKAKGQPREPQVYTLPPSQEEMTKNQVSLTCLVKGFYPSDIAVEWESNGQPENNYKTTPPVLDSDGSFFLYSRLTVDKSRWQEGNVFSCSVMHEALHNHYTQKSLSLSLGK
light: B3 light
notes: Anti-PVRIG/TIGIT
[1]
  binding result: binds
[2]
  binding result: binds

B6: 1708-151-4 (bispecific antibody, human IgG4 S228P, kappa)
heavy: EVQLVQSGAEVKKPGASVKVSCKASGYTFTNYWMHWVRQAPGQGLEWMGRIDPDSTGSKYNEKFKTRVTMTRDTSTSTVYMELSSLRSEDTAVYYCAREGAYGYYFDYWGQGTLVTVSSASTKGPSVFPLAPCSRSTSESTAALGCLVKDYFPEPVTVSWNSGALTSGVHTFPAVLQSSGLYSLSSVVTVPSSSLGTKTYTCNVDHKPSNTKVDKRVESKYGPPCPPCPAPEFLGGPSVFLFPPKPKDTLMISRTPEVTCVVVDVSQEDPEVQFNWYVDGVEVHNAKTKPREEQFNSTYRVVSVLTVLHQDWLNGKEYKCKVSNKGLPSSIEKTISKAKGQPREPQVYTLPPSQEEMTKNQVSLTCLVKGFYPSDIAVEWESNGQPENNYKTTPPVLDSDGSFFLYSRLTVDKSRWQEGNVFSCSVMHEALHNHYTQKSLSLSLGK
light: DIQMTQSPSSLSASVGDRVTITCRASENIYSYLAWYQQKPGKSPKLLIYNARTLAEGVPSRFSGSGSGTDFTLTISSLQPEDFATYYCQYHSGSPLPFGGGTKVEIKRTVAAPSVFIFPPSDEQLKSGTASVVCLLNNFYPREAKVQWKVDNALQSGNSQESVTEQDSKDSTYSLSSTLTLSKADYEKHKVYACEVTHQGLSSPVTKSFNRGECGGGGSGGGGSHVQLVESGGGSVQAGGSLRLSCVASASGFTYRPYCMAWFRQAPGKEREAVAGIDIFGGTTYADSVKGRFTASRDNAGFSLFLQMNDLKPEDTAMYYCAAGDSPDGRCPPLGQGLNYWGQGTQVTVSS
notes: Anti-PVRIG/TIGIT
[1]
  binding result: binds
[2]
  binding result: binds

B7: A17h1-1708-151H7-D (trispecific antibody, human IgG4 S228P, kappa)
heavy: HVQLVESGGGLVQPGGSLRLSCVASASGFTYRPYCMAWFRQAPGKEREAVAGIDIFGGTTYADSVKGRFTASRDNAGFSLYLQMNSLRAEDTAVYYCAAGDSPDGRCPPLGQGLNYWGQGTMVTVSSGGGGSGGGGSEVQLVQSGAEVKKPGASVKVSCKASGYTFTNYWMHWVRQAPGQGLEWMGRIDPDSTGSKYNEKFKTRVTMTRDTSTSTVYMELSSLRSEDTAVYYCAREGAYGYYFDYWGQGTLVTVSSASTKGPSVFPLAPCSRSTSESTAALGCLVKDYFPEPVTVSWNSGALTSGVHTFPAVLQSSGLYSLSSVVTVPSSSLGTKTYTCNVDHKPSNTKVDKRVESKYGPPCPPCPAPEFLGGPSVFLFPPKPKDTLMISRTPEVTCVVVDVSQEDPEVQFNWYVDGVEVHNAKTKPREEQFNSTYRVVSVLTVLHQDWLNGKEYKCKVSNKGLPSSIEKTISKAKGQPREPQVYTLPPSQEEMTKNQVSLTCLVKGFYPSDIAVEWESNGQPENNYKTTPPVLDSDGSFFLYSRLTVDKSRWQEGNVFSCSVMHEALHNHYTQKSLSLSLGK
light: DIQMTQSPSSLSASVGDRVTITCRASENIYSYLAWYQQKPGKSPKLLIYNARTLAEGVPSRFSGSGSGTDFTLTISSLQPEDFATYYCQYHSGSPLPFGGGTKVEIKRTVAAPSVFIFPPSDEQLKSGTASVVCLLNNFYPREAKVQWKVDNALQSGNSQESVTEQDSKDSTYSLSSTLTLSKADYEKHKVYACEVTHQGLSSPVTKSFNRGECGGGGSGGGGSEVQLQESGGGLVQPGGSLRLSCTASGLTFSDYSMSWYRQAPGKGRELVAIISGSGVIAHYVDSVKGRFTISRDNSKNTVYLQMRSLTPEDRAVYYCRAVSDWDDYWGQGTQVTVSS
[7]
  DC:T MLR result, 0.1 nM antibody (unit not given): 84.8
  DC:T MLR result, 1 nM antibody (unit not given): 97.3
  DC:T MLR result, 10 nM antibody (unit not given): 137
  DC:T MLR result, 100 nM antibody (unit not given): 149
[8]
  IC50 (read off the curve): ~1 nM
[9]
  EC50: 0.158 nM
